Consider one substance from patent US20260209324A1.

For the experiment, the target named is LFA-1 on immune cells (THP-1 cells, activated T cells) (human) (UniProt P20701).

Substance “human recombinant EDIL3 (from UniProt O43854) (ligand)” came in with an adhesion of THP-1 cells on TNF-α stimulated TEC monolayers (% inhibition of adhesion) of 55.
